From the supplement of paper PMC10266784

B1: library; numbered along this chain (parent)
chain: MAAAAAAAAEQQSSNGPVKKSMREKAVERRSVNKEHNSNFKAGYIPIDEDRLHKTGLRGRKGNLAICVIILLFILAVINLIITLVIWAVIRIGPNGCDSMEFHESGLLRFKQVSDMGVIHPLYKSTVGGRRNENLVITGNNQPIVFQQGTTKLSVENNKTSITSDIGMQFFDPRTQNILFSTDYETHEFHLPSGVKSLNVQKASTERITSNATSDLNIKVDGRAIVRGNEGVFIMGKTIEFHMGGNMELKAENSIILNGSVMVSTTRLPSSSSGDQLGSGDWVRYKLCMCADGTLFKVQVTSQNMGCQISDNPCGNTH

Variants of: B1
Experiment: SGCB cell-surface expression functional score (HA stain, bin4 vs bin1, normalised to synonymous) (log10 ratio); higher = more cell-surface SGCB (functional)
Summary of the method: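 Human beta-sarcoglycan, tagged with HA and fused to YFP, was built into codon-saturation libraries and delivered by lentivirus at MOI <0.1 into HEK293 cells that stably express alpha-, gamma- and delta-sarcoglycan. After 72 hours, YFP-positive cells were sorted and grown for 5–7 days, then stained on ice with Alexa Fluor 647 anti-HA, fixed, sorted into four 5% intensity bins and amplicon-sequenced. Each variant's functional score is the log ratio of its frequency in the highest bin to that in the lowest bin, taken as the median across codons and transductions. Transductions were done in duplicate, and synonymous variants were scaled per section to mean 0, SD 0.5.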
With MAAAAAAAAEQQSSNGPVKKSMREKAVERRSVNKEHNSNFKAGYIPIDEDRLHKTGLRGRKGNLAICVIILLFILAVINLIITLVIWAVIRIGPNGCDSMEFHESGLLRFKQVSDMGVIHPLYKSTVGGRRNENLVITGNNQPIVFQQGTTKLSVENNKTSITSDIGMQFFDPRTQNILFSTDYETHEFHLPSGVKSLNVQKASTERITSNATSDLNIKVDGRAIVRGNEGVFIMGKTIEFHMGGNMELGAENSIILNGSVMVSTTRLPSSSSGDQLGSGDWVRYKLCMCADGTLFKVQVTSQNMGCQISDNPCGNTH [K250G] the “SGCB cell-surface expression functional score (log10)” value was 0.55. For MAAAAAAAAEQQSSNGPVKKSMREKAVERRSVNKEHNSNFKAGYIPIDEDRLHKTGLRGRKGNLAICVIILLFILAVINLIITLVIWAVIRIGPNGCDSMEFHESGLLRFKQVSDMGVIHPLYKSTVGGRRNENLVITGNNQPIVFQQGTTKLSVENNKTSITSDIGMQFFDPRTQNILFSTDYETHEFHLPSGVKSLNVQKASTERITSNATSDLNIKVDGRAIVRGNEGVFIMGKTIEFHMGGNMELWAENSIILNGSVMVSTTRLPSSSSGDQLGSGDWVRYKLCMCADGTLFKVQVTSQNMGCQISDNPCGNTH [K250W], the “SGCB cell-surface expression functional score (log10)” value was 0.02. For MAAAAAAAAEQQSSNGPVKKSMREKAVERRSVNKEHNSNFKAGYIPIDEDRLHKTGLRGRKGNLAICVIILLFILAVINLIITLVIWAVIRIGPNGCDSMEFHESGLLRFKQVSDMGVIHPLYKSTVGGRRNENLVITGNNQPIVFQQGTTKLSVENNKTSITSDIGMQFFDPRTQNILFSTDYETHEFHLPSGVKSLNVQKASTERITSNATSDLNIKVDGRAIVRGNEGVFIMGKTIEFHMGGNMELHAENSIILNGSVMVSTTRLPSSSSGDQLGSGDWVRYKLCMCADGTLFKVQVTSQNMGCQISDNPCGNTH [K250H], the “SGCB cell-surface expression functional score (log10)” value was 0.87. For MAAAAAAAAEQQSSNGPVKKSMREKAVERRSVNKEHNSNFKAGYIPIDEDRLHKTGLRGRKGNLAICVIILLFILAVINLIITLVIWAVIRIGPNGCDSMEFHESGLLRFKQVSDMGVIHPLYKSTVGGRRNENLVITGNNQPIVFQQGTTKLSVENNKTSITSDIGMQFFDPRTQNILFSTDYETHEFHLPSGVKSLNVQKASTERITSNATSDLNIKVDGRAIVRGNEGVFIMGKTIEFHMGGNMELYAENSIILNGSVMVSTTRLPSSSSGDQLGSGDWVRYKLCMCADGTLFKVQVTSQNMGCQISDNPCGNTH [K250Y], the “SGCB cell-surface expression functional score (log10)” value was 1.05. In the case of MAAAAAAAAEQQSSNGPVKKSMREKAVERRSVNKEHNSNFKAGYIPIDEDRLHKTGLRGRKGNLAICVIILLFILAVINLIITLVIWAVIRIGPNGCDSMEFHESGLLRFKQVSDMGVIHPLYKSTVGGRRNENLVITGNNQPIVFQQGTTKLSVENNKTSITSDIGMQFFDPRTQNILFSTDYETHEFHLPSGVKSLNVQKASTERITSNATSDLNIKVDGRAIVRGNEGVFIMGKTIEFHMGGNMELNAENSIILNGSVMVSTTRLPSSSSGDQLGSGDWVRYKLCMCADGTLFKVQVTSQNMGCQISDNPCGNTH [K250N], the “SGCB cell-surface expression functional score (log10)” value is reported as 0.48. For MAAAAAAAAEQQSSNGPVKKSMREKAVERRSVNKEHNSNFKAGYIPIDEDRLHKTGLRGRKGNLAICVIILLFILAVINLIITLVIWAVIRIGPNGCDSMEFHESGLLRFKQVSDMGVIHPLYKSTVGGRRNENLVITGNNQPIVFQQGTTKLSVENNKTSITSDIGMQFFDPRTQNILFSTDYETHEFHLPSGVKSLNVQKASTERITSNATSDLNIKVDGRAIVRGNEGVFIMGKTIEFHMGGNMELLAENSIILNGSVMVSTTRLPSSSSGDQLGSGDWVRYKLCMCADGTLFKVQVTSQNMGCQISDNPCGNTH [K250L], the “SGCB cell-surface expression functional score (log10)” value was 0.54. For MAAAAAAAAEQQSSNGPVKKSMREKAVERRSVNKEHNSNFKAGYIPIDEDRLHKTGLRGRKGNLAICVIILLFILAVINLIITLVIWAVIRIGPNGCDSMEFHESGLLRFKQVSDMGVIHPLYKSTVGGRRNENLVITGNNQPIVFQQGTTKLSVENNKTSITSDIGMQFFDPRTQNILFSTDYETHEFHLPSGVKSLNVQKASTERITSNATSDLNIKVDGRAIVRGNEGVFIMGKTIEFHMGGNMELMAENSIILNGSVMVSTTRLPSSSSGDQLGSGDWVRYKLCMCADGTLFKVQVTSQNMGCQISDNPCGNTH [K250M], the “SGCB cell-surface expression functional score (log10)” value was 0.98. In the case of MAAAAAAAAEQQSSNGPVKKSMREKAVERRSVNKEHNSNFKAGYIPIDEDRLHKTGLRGRKGNLAICVIILLFILAVINLIITLVIWAVIRIGPNGCDSMEFHESGLLRFKQVSDMGVIHPLYKSTVGGRRNENLVITGNNQPIVFQQGTTKLSVENNKTSITSDIGMQFFDPRTQNILFSTDYETHEFHLPSGVKSLNVQKASTERITSNATSDLNIKVDGRAIVRGNEGVFIMGKTIEFHMGGNMELIAENSIILNGSVMVSTTRLPSSSSGDQLGSGDWVRYKLCMCADGTLFKVQVTSQNMGCQISDNPCGNTH [K250I], the “SGCB cell-surface expression functional score (log10)” value is reported as 1. With MAAAAAAAAEQQSSNGPVKKSMREKAVERRSVNKEHNSNFKAGYIPIDEDRLHKTGLRGRKGNLAICVIILLFILAVINLIITLVIWAVIRIGPNGCDSMEFHESGLLRFKQVSDMGVIHPLYKSTVGGRRNENLVITGNNQPIVFQQGTTKLSVENNKTSITSDIGMQFFDPRTQNILFSTDYETHEFHLPSGVKSLNVQKASTERITSNATSDLNIKVDGRAIVRGNEGVFIMGKTIEFHMGGNMELPAENSIILNGSVMVSTTRLPSSSSGDQLGSGDWVRYKLCMCADGTLFKVQVTSQNMGCQISDNPCGNTH [K250P] the “SGCB cell-surface expression functional score (log10)” value was -0.39. For MAAAAAAAAEQQSSNGPVKKSMREKAVERRSVNKEHNSNFKAGYIPIDEDRLHKTGLRGRKGNLAICVIILLFILAVINLIITLVIWAVIRIGPNGCDSMEFHESGLLRFKQVSDMGVIHPLYKSTVGGRRNENLVITGNNQPIVFQQGTTKLSVENNKTSITSDIGMQFFDPRTQNILFSTDYETHEFHLPSGVKSLNVQKASTERITSNATSDLNIKVDGRAIVRGNEGVFIMGKTIEFHMGGNMELEAENSIILNGSVMVSTTRLPSSSSGDQLGSGDWVRYKLCMCADGTLFKVQVTSQNMGCQISDNPCGNTH [K250E], the “SGCB cell-surface expression functional score (log10)” value was 0.06.
